The DeepSol protein solubility set

Test: soluble on expression in E. coli; label from the status in PepcDB or PDB records

Soluble on expression in E. coli, not soluble:
MQRSLQIFCIMSAIAMAYSQGSRDDNQSAKRNDFSRDIMSFGKRSGNTADLYDRRIMAFGKRQPSYDRDIMSFGKRSAPSDFSRDIMSFGKRSSSMYDRDIMSFGKRSPVDYDRPIMAFGKRAEDYERQIMAFGRRK
MSLDYSTSLRFQSQLERSMTEALNALGYYHPSIDFTVSEDNQRLRAAVTLGEVTRLSEVDIVIRGEAEGDRDFQRLIRRSGLRVDAPLNHSLYDNLKSGIRNLALQKGYFNGDFQASRLEVIPELNQARVILHFDSGIRYLFGATTVEGSQIDENRVMSLRPFKQGEPYLVSQVGEFNQNLSNTDWFSSVFVEPDLSQLDEGRELPIKVTLAPQARNQLETGLGYSTDVGVRGSLKWKKPWVNSQGHSFDSSFSLSIPEQTITAGYKIPLEDALNEYYRIQYGMKHLDKRDTESLESNLSLERHWQLDGGWHRTVFIRYLLENYRQGLQDDNSQFLLPGMTYTRTRTRSNSGLLTWGDKQTITLEYGDPALLSETRVLRLQTGSSWLRTYARNHRALVRVDGGANLVDEFDQLSPSLRFFAGGDNNLRGYGYKSISPQDASGALTGAKYIATSSIEYQYRLTGNWWAAMFMDVGDAFNDNPEWKKGVGTGIRWISPVGPIRLDFAWGLDAAPGDEFKIHFTLGPELEGHHHHHH
MVEQTTSEPAAGSMPKISFGVKKREENKVQAPAKAVVIEVDLDSDEEREKNEMERAAKRRKVMHFEDGTVQGDIDKPKEAAVIPMVVEHDWRTQKLIEKEKAGTLTEEERAKLALVLPNGIDGENEEESGKGEKIVVEDGRGDTEDADYSAIPIESFGLAILRGCNWKDGDGIGKNPQKVALKLPNRRPPGLGLGATPKNPVGKNKNTGESSKAEEEKLEEIKVGSFIKVVDGRNKGVYGKVEGRDDDSNSLFIRTAIGGKTMKVSQIVAVAVSAKEYERDSKCLNKSEYDKEKDRLETERKKLESQPPSTSTSQSSKDYKSKSSSSKHDKNSSEYERNDKMWARTDLLVRFIDEDFKRGSLYEQKVRIVDVAGDNDVTIEDDRGNTHYNIRQSWLETVIPREIGEKLMIVAGKRSGQLAVMLDKDKRKEKVTARLVATNDVVTAYFEDVCSVKIRHEEDYE
GPGSMHRIVKVNVGGRYFQTRLSTLLRFPDTSFARMFEGLASTSALPPTLSPPPQPTESEDVFVDANPDVFEKVLGFLRTNRIQLPLNDECLRAELVHHLNSWDLMPHAFPASAADGAVEGEEAHRIELPDVCVVQLCDHMQHDQGVKRHAMTITYGADGFQLRKLTQMIRRDLNQQLSSTYWQCYQTNERAAFFATTKVANGAADILTTSITQQVVQHTERLGYHLATSYVTL
MGSDKIHHHHHHMDLPDSASRVFCGRILSMVNTDDVNAIILAQKNMLDRFEKTNEMLLNFNNLSSARLQQMSERFLHHTRTLVEMKRDLDSIFRRIRTLKGKLARQHPEAFSHIPEASFLEEEDEDPIPPSTTTTIATSEQSTGSCDTSPDTVSPSLSPGFEDLSHVQAGSPAINGRSQTDDEEMTGE

Soluble on expression in E. coli, soluble:
MFIESRELVMKHRIPVAKTERYWKGLEEGKVFKTVCKSCGKEHHPPRAECLCGGEVEWVEITGEGVVEAFTTVHTIPAGFEWHREPYTIAIARFGEVRVMGWAKEVRVGDVVRLKPGKDETGVWKVYFEVVLEHHHHHH
MIDQTALATEIKRLIKAAGPMPVWRYMELCLGHPEHGYYVTRDPLGREGDFTTSPEISQMFGELLGLWSASVWKAADEPQTLRLIEIGPGRGTMMADALRALRVLPILYQSLSVHLVEINPVLRQKQQTLLAGIRNIHWHDSFEDVPEGPAVILANEYFDVLPIHQAIKRETGWHERVIEIGASGELVFGVAADPIPGFEALLPPLARLSPPGAVFEWRPDTEILKIASRVRDQGGAALIIDYGHLRSDVGDTFQAIASHSYADPLQHPGRADLTAHVDFDALGRAAESIGARAHGPVTQGAFLKRLGIETRALSLMAKATPQVSEDIAGALQRLTGEGRGAMGSMFKVIGVSDPKIETLVALSDDTDREAERRQGTHGLEHHHHHH
MSLGFHEFSSPYDWSRIASYKRTAKAAFGGMVDLSVGSPVDPVPDSVRKALAVSSNDPNAYGYPVTAGTADLRDAIHEWFAAARNVDLRAIGADAVPTVGSKEGVALMASLLHFGEGDVVVQPKVSYPTYEIGTQLAGAQTLKVDDVADADSWKDVPGVKAVWVNSPCNPTGEVLSAEQMAGIVRAARAIGAVVLSDECYALMQWEDDVAEADADTLASTPCALRADVCGGSAEGVLVLYSLSKQSNMAGYRTALIAGDQSLIGPMAAYRKQIGQIIPGPVQAAMAAGLRDFDAVKTQHSRYQERLGMLVSALRAYGYCTDMPQGALYVWVKAKSGDCWEDLRQLAEIGIVASPGEFYGAPEYLRFSATASDAAIASAAERLAREGHHHHHH
